These results are taken from patent EP4538286A1 (Adlai Nortye Biopharma Co., Ltd., dated 2025).

Positions count from the first letter of the chain named. In names and notes the source's numbering stands.

T1: human CTLA4 protein (human, UniProt P16410 37-162, limits assumed)
T1 construct: bought protein coated on the ELISA plate; also called human CTLA4 antigen
T1 sequence (looked up): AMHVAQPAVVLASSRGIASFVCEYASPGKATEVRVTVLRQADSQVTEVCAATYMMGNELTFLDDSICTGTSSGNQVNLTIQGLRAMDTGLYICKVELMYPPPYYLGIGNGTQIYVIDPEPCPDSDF

B1: Abs-353 (other)
heavy: VIHVTKEVKEVATLSCGHNVSVEELAQTRIYWQKNKKMVLTMMSGDMNIWPEYKNRTIFDITNNLSIVILELRPSDEGTYECVVLKYEKDAFKREHLAEVTLSVKADGGGGSGGGGSGGGGSGGGGSGEVQLLESGGGLVQPGGSLRLSCAASGFTFSSYAMSWVRQAPGKGLEWVSGISGSGGFTYYADSVKGRFTISRDNSKNTLYLQMNSLRAEDTAVYYCAKPPRGYNYGPFDYWGQGTLVTVSSASTKGPSVFPLAPCSRSTSESTAALGCLVKDYFPEPVTVSWNSGALTSGVHTFPAVLQSSGLYSLSSVVTVPSSSLGTKTYTCNVDHKPSNTKVDKRVESKYGPPCPPCPAPEFLGGPSVFLFPPKPKDTLMISRTPEVTCVVVDVSQEDPEVQFNWYVDGVEVHNAKTKPREEQFNSTYRVVSVLAVLHQDWLNGKEYKCKVSNKGLPSSIEKTISKAKGQPREPQVYTLPPSQEEMTKNQVSLTCLVKGFYPSDIAVAWESNGQPENNYKTTPPVLDSDGSFFLYSRLTVDKSRWQEGNVFSCSVMHEALHAHYTQKSLSLSLGK
light: SYVLTQPPSVSVAPGQTARITCGGNNIGSKSVHWYQQKPGQAPVLVVYDDSDRPSGIPERFSGSNSGNTATLTISRVEAGDEADYYCQVWDSSSDHVVFGGGTKLTVLGQPKAAPSVTLFPPSSEELQANKATLVCLISDFYPGAVTVAWKADSSPVKAGVETTTPSKQSNNKYAASSYLSLTPEQWKSHRSYSCQVTHEGSTVEKTVAPTECS
notes: CD80 IgV mutant fused to the N-terminus of the sugemalimab heavy chain; also called CD80 IgV mutant E35N/A71E-sugemalimab fusion
B2: Abs-256 (other)
heavy: B1 heavy with H18W, A26M, N35E, L85D
light: B1 light
notes: the paragraph that names the antibody is followed; also called CD80 IgV mutant H18W/A26M/A71E/L85D-sugemalimab fusion
B3: Abs-99 (other)
heavy: B1 heavy with N35E, E71A
light: B1 light
notes: CD80 IgV fused to the N-terminus of the heavy chain of the anti-PD-L1 antibody sugemalimab; also called wild type Abs-99; wild-type CD80 IgV-sugemalimab fusion polypeptide complex
B4: Abs-260 (other)
heavy: B1 heavy with A26M, N35E, L85D
light: B1 light
notes: the paragraph that names the antibody is followed; also called CD80 IgV mutant A26M/A71E/L85D-sugemalimab fusion
B5: Abs-257 (other)
heavy: B1 heavy with H18W, A26C, N35E, L85N
light: B1 light
notes: the paragraph that names the antibody is followed; also called CD80 IgV mutant H18W/A26C/A71E/L85N-sugemalimab fusion
B6: Abs-255 (other)
heavy: B1 heavy with H18W, A26M, N35E, L85N
light: B1 light
notes: the paragraph that names the antibody is followed; also called CD80 IgV mutant H18W/A26M/A71E/L85N-sugemalimab fusion
B7: Abs-272 (other)
heavy: B1 heavy with N35E, M47Q, I69Y, V83L
light: B1 light
notes: CD80 IgV mutant fused to the N-terminus of the sugemalimab heavy chain; also called CD80 IgV mutant M47Q/I69Y/A71E/V83L-sugemalimab fusion
B8: Abs-259 (other)
heavy: B1 heavy with A26M, N35E, L85N
light: B1 light
notes: the paragraph that names the antibody is followed; also called CD80 IgV mutant A26M/A71E/L85N-sugemalimab fusion
B9: Abs-268 (other)
heavy: B1 heavy with T13K, N35E, M42T, M47H
light: B1 light
notes: the paragraph that names the antibody is followed; also called CD80 IgV mutant T13K/M42T/M47H/A71E-sugemalimab fusion
B10: Abs-273 (other)
heavy: B1 heavy with N35E, M47K, I69Y, V83L
light: B1 light
notes: CD80 IgV mutant fused to the N-terminus of the sugemalimab heavy chain; also called CD80 IgV mutant M47K/I69Y/A71E/V83L-sugemalimab fusion
B11: Abs-270 (other)
heavy: B1 heavy with T13K, N35E, M42T
light: B1 light
notes: CD80 IgV mutant fused to the N-terminus of the sugemalimab heavy chain; also called CD80 IgV mutant T13K/M42T/A71E-sugemalimab fusion
B12: Abs-266 (other)
heavy: B1 heavy with T13K, N35E, M42L, M47Q
light: B1 light
notes: the paragraph that names the antibody is followed; also called CD80 IgV mutant T13K/M42L/M47Q/A71E-sugemalimab fusion
B13: Abs-263 (other)
heavy: B1 heavy with N35E, I69L, V83L
light: B1 light
notes: the paragraph that names the antibody is followed; also called CD80 IgV mutant I69L/A71E/V83L-sugemalimab fusion
B14: Abs-254 (other)
heavy: B1 heavy with N35E, I69W
light: B1 light
notes: the paragraph that names the antibody is followed; also called CD80 IgV mutant I69W/A71E-sugemalimab fusion
B15: Abs-258 (other)
heavy: B1 heavy with H18W, A26C, N35E, L85D
light: B1 light
notes: the paragraph that names the antibody is followed; also called CD80 IgV mutant H18W/A26C/A71E/L85D-sugemalimab fusion
B16: Abs-271 (other)
heavy: B1 heavy with N35E, M47H, I69Y, V83L
light: B1 light
notes: CD80 IgV mutant fused to the N-terminus of the sugemalimab heavy chain; also called CD80 IgV mutant M47H/I69Y/A71E/V83L-sugemalimab fusion
B17: Abs-250 (other)
heavy: B1 heavy with N35E, M47A, I69W
light: B1 light
notes: the paragraph that names the antibody is followed; also called CD80 IgV mutant M47A/I69W/A71E-sugemalimab fusion
B18: Abs-262 (other)
heavy: B1 heavy with A26C, N35E, L85N
light: B1 light
notes: the paragraph that names the antibody is followed; also called CD80 IgV mutant A26C/A71E/L85N-sugemalimab fusion
B19: Abs-251 (other)
heavy: B1 heavy with N35E, I69Y, V83L
light: B1 light
notes: the paragraph that names the antibody is followed; also called CD80 IgV mutant I69Y/A71E/V83L-sugemalimab fusion
B20: Abs-248 (other)
heavy: B1 heavy with N35E, M47A, I69W, V83L
light: B1 light
notes: the paragraph that names the antibody is followed; also called CD80 IgV mutant M47A/I69W/A71E/V83L-sugemalimab fusion
B21: Abs-366 (other)
heavy: B1 heavy with N35T, E71N
light: B1 light
notes: CD80 IgV mutant fused to the N-terminus of the sugemalimab heavy chain; also called CD80 IgV mutant E35T/A71N-sugemalimab fusion
B22: Abs-252 (other)
heavy: B1 heavy with N35E, I69W, V83L
light: B1 light
notes: the paragraph that names the antibody is followed; also called CD80 IgV mutant I69W/A71E/V83L-sugemalimab fusion
B23: Abs-265 (other)
heavy: B1 heavy with T13K, N35E, M42L, M47H
light: B1 light
notes: the paragraph that names the antibody is followed; also called CD80 IgV mutant T13K/M42L/M47H/A71E-sugemalimab fusion
B24: Abs-249 (other)
heavy: B1 heavy with N35E, M47A, I69Y
light: B1 light
notes: the paragraph that names the antibody is followed; also called CD80 IgV mutant M47A/I69Y/A71E-sugemalimab fusion
B25: Abs-247 (other)
heavy: B1 heavy with N35E, M47A, I69Y, V83L
light: B1 light
notes: the paragraph that names the antibody is followed; also called CD80 IgV mutant M47A/I69Y/A71E/V83L-sugemalimab fusion
B26: Abs-267 (other)
heavy: B1 heavy with T13K, N35E, M42L
light: B1 light
notes: the paragraph that names the antibody is followed; also called CD80 IgV mutant T13K/M42L/A71E-sugemalimab fusion
B27: Abs-253 (other)
heavy: B1 heavy with N35E, I69Y
light: B1 light
notes: the paragraph that names the antibody is followed; also called CD80 IgV mutant I69Y/A71E-sugemalimab fusion
B28: Abs-261 (other)
heavy: B1 heavy with A26C, N35E, L85D
light: B1 light
notes: the paragraph that names the antibody is followed; also called CD80 IgV mutant A26C/A71E/L85D-sugemalimab fusion

T2 sequence (P10747 19-152 limits assumed): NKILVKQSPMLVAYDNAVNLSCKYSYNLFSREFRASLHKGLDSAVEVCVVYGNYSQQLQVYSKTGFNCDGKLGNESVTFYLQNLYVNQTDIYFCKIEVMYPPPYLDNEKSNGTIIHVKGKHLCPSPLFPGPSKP

The first experiment deals with PD-L1 on TCR activator PD-L1-CHO cells (UniProt Q9NZQ7 19-290, limits assumed). The experiment can be described thus: cell-based or functional assay.
PD-L1 on TCR activator PD-L1-CHO cells, sequence (Q9NZQ7 19-290 limits assumed): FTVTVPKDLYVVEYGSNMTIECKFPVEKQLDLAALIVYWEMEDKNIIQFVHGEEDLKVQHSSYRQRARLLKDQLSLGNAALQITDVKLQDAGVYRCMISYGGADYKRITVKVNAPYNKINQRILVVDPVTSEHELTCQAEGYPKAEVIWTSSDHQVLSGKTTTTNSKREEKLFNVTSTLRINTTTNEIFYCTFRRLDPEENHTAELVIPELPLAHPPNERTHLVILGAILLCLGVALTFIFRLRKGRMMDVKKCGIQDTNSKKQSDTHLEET
In the case of B1, the “EC50(nM), Jurkat-NFAT-Luc/CHO-PDL1” value came to 0.48 nM and the “The highest induction relative to 10 nM sugemalimab” value was found to be 1130%.
The corresponding values for B2 are 0.87 nM and 133%.
Taken in the same sequence, the figures for B3 were 0.28 nM and 215%.
The corresponding values for B4 are 0.65 nM and 128%.
On to B5, for which the “EC50(nM), Jurkat-NFAT-Luc/CHO-PDL1” value was found to be 0.82 nM and the “The highest induction relative to 10 nM sugemalimab” value was 122%.

The next experiment has as its target T1, human CTLA4 protein. The experiment can be described thus: ELISA, plate-coated human CTLA4.
As to B1, the midpoint of the response, the EC50, lay at 128 pM and the “binding strength @ 20nM” value worked out at 2490%.
Turning to B6, the binding result was “no binding”.
Still for that read-out and setting: as for B7, the entry is “no binding”; as for B2, “no binding”.
Take B8: the binding result is reported as “no binding”.
On to B9, for which the binding result is reported as “no binding”.
Same read-out and setting: under B10 stands “no binding”; under B11, “no binding”.
The same measure, in the same setting: under B12 stands “no binding”; under B13, “no binding”.
B3: the half-maximal effective concentration (EC50) (commonly the midpoint of the concentration-response curve) is 24400 pM and the “binding strength @ 20nM” value came to 1200%.
In the case of B4, the binding result is listed as “no binding”.
On to B14, for which the binding result was “no binding”.
Turning to B5, the binding result is listed as “no binding”.
Consider B15, for which the binding result is listed as “no binding”.
On the same count and under the same terms, as for B16, the entry is “no binding”.
As for B17, the binding result was “no binding”.
On to B18, for which the binding result was “no binding”.
Consider B19, for which the binding result is reported as “no binding”.
On to B20, for which the binding result is reported as “no binding”.
Still for that read-out and setting: as for B21, the entry is “no binding”.
As for B22, the binding result is “no binding”.
On to B23, for which the binding result is recorded as “no binding”.
As for B24, the binding result is “no binding”.
The same measure, in the same setting: as for B25, the entry is “no binding”.
On to B26, for which the EC50 amounted to 13700 pM and the “binding strength @ 20nM” value is 1920%.
Regarding B27, the binding result is recorded as “no binding”.
The same measure, in the same setting: as for B28, the entry is “no binding”.

The next experiment addresses T2, human CD28 protein (human, UniProt P10747 19-152).
T2 construct: bought protein coated on the ELISA plate; also called human CD28 antigen
The experiment can be described thus: ELISA, plate-coated human CD28. Also on record: binding strength @ 100nM: reference not given here. For orientation: ELISA stands for enzyme-linked immunosorbent assay.
B1: the EC50 came out at 25000 pM and the “binding strength @ 100nM” value is 1450%.
With B6, the binding result was “no binding”.
For the molecule B7, the binding result is listed as “no binding”.
Still for that read-out and setting: under B2 stands “no binding”.
Still for that read-out and setting: under B8 stands “no binding”; under B9, “no binding”; under B10, “no binding”.
Consider B11, for which the binding result is listed as “no binding”.
Turning to B12, the binding result is listed as “no binding”.
On to B13, for which a half-maximal response (EC50) required 26100 pM and the “binding strength @ 100nM” value was 333%.
Turning to B3, a half-maximal response (EC50) required 27900 pM and the “binding strength @ 100nM” value is 283%.
Consider B4, for which the binding result is on record as “no binding”.
Still for that read-out and setting: under B14 stands “no binding”.
The same measure, in the same setting: under B5 stands “no binding”; under B15, “no binding”; under B16, “no binding”.
Take B17: the binding result is “no binding”.
The same measure, in the same setting: as for B18, the entry is “no binding”; as for B19, “no binding”; as for B20, “no binding”.
Same read-out and setting: under B21 stands “no binding”; under B22, “no binding”.
Consider B23, for which the binding result is recorded as “no binding”.
Still for that read-out and setting: under B24 stands “no binding”; under B25, “no binding”; under B26, “no binding”.
Still for that read-out and setting: under B27 stands “no binding”; under B28, “no binding”.
